In a protein production outcome set (Wang et al. 2014):

Assay: label from the status in PepcDB records

Sequence	protein production
MQPPSHAPRQLAAADLAVGQVVAQREIRLDAQAFAQFAALTGDAHPIHYDAGYAQRQGLRAPIAHGLLLVAISALGATPLSAQLHDAMVAMVGVEAVFMRPVYVDETVQCVYRVAQIEHVAKGRSKTTIAVSIHTTDAPPDAARQAHCVVHLTFLLKTHLQG	failed
MQPTSITVASYNLRNANGGDSINGNGWGQRYPVIAQIVQYHDFDIFGTQECFIHQLKDMKEALPGYDYIGVGRDDGKEKGEHSAIFYRTDKFDVIEKGDFWLSETPDVPSKGWDAVLPRICSWGHFKCKDTGFEFLFFNLHMDHIGKKARVESAFLVQDKMKELGKGKELPAILTGDFNVDQTHQSYDAFVSKGVLCDSYEKAGFRYAINGTFNDFDPNSFTESRIDHIFVSPSFQVKRYGVLTDTYRSIVGKGEKKQANDCPEEIDIKTYQARTPSDHFPVKVELEFDQRQQKLEHHHHHH	not failed
MQPWTQIYTPLGSLWLSALAAAIPILFFFVALAVLRMKGHVAAAVTLALALAVAIFAYGMPAQQAFAAAGFGFAYGLWPIAWIIVTAVFLYKIVVKTGQFDVIRASVLSITDDQRLQMLLIGFAFGAFLEGAAGFGAPVAITAALLVGLGFNPLYAAGLCLIANTAPVAFGAMGIPIIVAGQVTGIDPMHIGAMAGRQLPLLSLAVPFWLVFMMDGAKGVRETWPAALVVGGSFAVTQYFTSNHIGPELPDITSALVSLISLAAFLRVWQPRSASQAAGGTVAAGGTVAMAGFGGGMGAPASRKASPYTFGQTVRAWAPFGILTAIVTVWSLAPFKALFAGNGALAGTVLKFKVPMLDQLVIKSAPIVASPKPYEAVLKLDLLSAVGTAILLTAIISAVLLRMKPSDAITTFKETLLELRRPIASIGLVLAFAFVANYSGMSSTLALLLAGTGAAFPFFSPLLGWLGVFLTGSDTSSNALFCSLQHTTAHQIGVSDTLLVAANTTGGVTGKMISPQSIAVACAATGLVGKESELFRFTVKHSLLFAAIVGVITMIQAYWLTGMIPG	failed
MQQSEHFSFGEQTEIEDIGGGLKRQMLGFNHELMAVKIWFDKGAEGYVHAHRHSQVSYVVEGEFHVNVDGVIKVLTAGDSFFVPPHVDHGAVCPTGGILIDTFSPAREDFVEGLS	not failed
MQRFVLRDWHYRGLSMSLMAQTDKPNIVIIMTDQQRADLCGREGFPLAVTPYVDQLAQENVWFNKAYTVAPASSPARCSMFTGRFPSATHVRTNHNIPDIFFEQDLVGVLKENGYKTALVGKNHAYLKPADLDFWSEYGHWGKNKKTTPEEKETARFLNQKARGQWLEPSPIPVEEQHPAKIVNETLSWIESQKENPFFVWVSFPEPHNPYQVCEPYYSMFSPDKLPVLKTSRKDLEKKGEKYRILAELEDASCPNLEQDLPRIRANYIGMIRLIDDQIKRLIESLKASGQFENTIFVVLSDHGDYWGEYGLIRKGAGLSESLARIPMVWAGYHVKNQSAPMDSHVSIADIFPTLCSAIGAKIPAGVQGRSLWPMLTGKEYPKEEFSSIVVQQGFGGAHVGLDSSLTFEQEGALTPGKIAYFDELNTWTQSGTSRMVRKDDWKLVMDNYGNGELYNLKKDPSEVDNLFGKKKYTAVQTELLTKLVAWELRLQDPLPLPRKRYHFKQDPYNYLQPEQLEHHHHHH	failed
MQRLLLASSLLLALSACSDKSAPANTADAAAPAAAPAATAPATAPELIPRDALFGNPERASVRISPDGKYLSWVAPLDGVLNVWVAPVDAPDKARAITKDTARGIRSYYWTYHSDTLLYLRDTGGDEDFHLYAVNLSDGSSKDLTPFKKTNAEVYGISDQHPDAIMVGMNDRDAKWHDLYKVELASGTRTLVQKNTDSLDSYLLDGNYQLRYATRATDDAGRELLVPEGKGWKSVDRIPFEDVTNTAPAGLTDDGKTLYMLDSRNRDTAALYAIDTASNARTLLFEDARADAGSTLNDPKTGVVQAVSTDYLREEWKTLDTSIAADLQKLKSLGPGDAGIAARTLDDRTWIVAYSAAETPLTYYRYDRADGGKLTKLFSARPALEGKPLVPMWPQEIAARDGLKLVSYLSLPAEADSNHDGKADKAVPLVLFVHGGPWARDSYGYGAYEQWLANRGYAVLSVNFRGSTGFGKAFTNAGNGEWAGKMHYDLLDAVQWAVKQGVTTPQDVAIMGGSYGGYATLVGMTFTPDAFKCGVDIVGPANLNTLLGTVPPYWASFYKQLTKRMGDPATAAGKQWLTERSPLSHVDKISKPLLIGQGANDPRVKQAESDQIVNAMKAKNIPVTYVLFPDEGHGFQRPENSKAFNAVTEGFLSQCLGGRAQPIGADFEGSSITVPEGADRITGLADALKTHTQAIRK	failed
MQRQGSGGGSAVIRVRVAGGVLLAAHLMLVVWITLRPLDVPWVSPANLHPFAGIRADLALGPREAVRRIGEGLGLLAPLGVLLPMVAGRLAVSPLASLTRTVAAGALISLGIELLQTGVPGQVVDVDSLLLNTVGVALAHLAIVPAGRARLRRRAETRRRAALGREELSQGLTPTIPRVGIAP	failed
MQRRLERFDAKLVQSGLDALLVTGQNNIYYLTDFWGTNATVFITKNRRLFLTDSRYTLIAKQSVHGFDIIESKDPLKDIVKFVEVDKLETIGFDNQVSFAYYQALQAIFEGYTLSPQTNFMEELRMIKDEKELATIRKACSISDRAFTDVLDFIKPGQTTELQVANFLDFRMREYGASGISFESIIASGYRSAMPHGVASDKVIQSGETLTMDFGCYYNHYVSDMTRTIHIGETTDEEREIYDIVLRSNRALIDATKAGMTRRDYDKVARDVIVEAGYGDYFTHGIGHGIGLDIHEIPYFGNSDETIEAGMVLTDEPGIYLADKYGVRIEDDIIITENGCEVITLAPKELIVL	failed
MQRYETTSVQNITQQYVHWFRHSAPYINAHRNKTLVLMFGGEAVQHPNFQHIIHDIALLHSLGIRLILVHGARPQINQNLQEKQIETPIHLHRRVTTRESLACVMNAVGSIRLEIEALLSMGLANSPMFGARIDVVSGNFVTAKPYGIRDGVDFQLTGEVRAIDTDAIQRHLDNHNIVVLGPTGYSTTGEVFNLLAEEVATKTATALHADKLIFLGKKQGLLSDQGKLLRELTPQQLEPYIKHFQQLDHEMALHLQGAQTASLSGVHRVHLISYAYDGALIEELFTRDGIGTMITDAHYEDVRTATIQDVGGLINLLRPLEEEGILVYRSRERLESEISQFAVIERDGMILACAALYPIPTAKNEIRSAEIACVAVDPAYRKSNRGSQILHFLEEKARQEGILQLFVLTTRTAHWFLEHGFQTASVDDLPSARQELYNYQRNSLVFKKILM	failed
MQSKAHALTFTVLPITQKTDQWSVKVSEAKNVKEFTRPHKGEYQVYSLGSQKYRGKSSYSGCAIVLEHHHHHH	not failed
MQSSLSFSCGVKSTMAKSPVEVNLIPIEATPETFAEYGQVIEASRDGAGYGPNDAQLDLSKGIPRLYILRLKETPLGFFKITHHAKVTQCLGSIGGDIWYMGVAKPSLIEDDDDGRRVDTVKAKSGHLYIPPEVEEIRVFRFSGPKFVKLHRGTWHAGPLFSGSSIMDFYNLELSNTNVVDHTSHDFTKNNGVSFRFDT	failed
MQSTDLGNKESGKIWHRKPSPATHDGIIVNIVHSTSEYHPKVLRFLNVAFDGSGDSFIAGDHQGNIYVFDLHGNRFNLVQRTAQACTALAFNLRRKSEFLVALADYSIKCFDTVTKELVSWMRGHESSVCSISVHASGRYAITTSSDTAQLWDLDTFQRKRKLNIRQSVGIQKVFFLPLSNTILSCFKDNSIFAWECDTLFCKYQLPGPPEGSNILYKVFAVTRDGRILAAGGKSNHLHLWCLEATGLFRIIQMPAKVRAVRHLEFLPDSFDAGSNQVLGVLSQDGIMRFVNIQTCKLLFEIGTVEEGISSSVISPHGRYIASIMENGSLNVYSVQALTQEINKPPPPLVKVIEDLPSNTVSSSNLKMKIMPGRVQRPARCKESKIPTRVLKQDLTGDLENKENELSEGLNKKRLQILLKGYGEYPTKYRMFIWRSLLQLPENHTAFSSLVDKGTHAAYLSLQKKYPIKSRKLLRVLQRTLSALAHWSAIFSDTPYLPLLAFPFVKLFQNNQLICFEVVATLIINWCQHWFEYFPNPPINILSMIENVLAFHDKELLQHFIDRDITSQVYAWPLLETLFSEVLTREEWLRLFDNIFSNHPSFLLMTVVAYSTCSRAPLLNCTLKNDFEYFFHHRNNLDINVVIREVYHLMETTPADIHPNSMLDAFVALTKGQYPIFNQYPKFIVDYQTREWERIRNDELDFLRERQTVENMQAEVDEQRAKDEAWYQKQELLRRAEETRREILLQEEEKMAQQRQRLAAVKRELEIKEIHLQDAARRRLLKLQQDQREMELRRLEDEIERKVQMRDQEIAATAKDLEIRQLELEAQKRLYEKYSFSLSFMQNIV	failed
MQTDEKLHVLLADDDPIMLARLSRQLEADGHHVASRRDGETALAYALEHQPEMVITDWHMKPMNGLELCRALRESALGGNVYIVMLTASESEDALVEAFGAGIDDYVIKPPSVRVLKARIRAGQRIITLHKKLARERKEIERYSSELAAANRRLELMAHTLEHHHHHH	failed
MQTLNDIYLAYLDSLNHQAFDELGTFVDDNVEHNGRPFGLSGYRDMLVKDFADIPDLRFEAEILVSDATRLAARLFFDCTPKSIFMDLPVNGRRVQFCEHVFYDFEQAKIRRVWSVLDKVAIERQLG	not failed
MQTSFCVLVSIIERMPTWNDIKVRNPQHSHNYAKRWENLEAEGNDINGEARLIDALVQRGSKILDAGCGQGRVGGYLSARGHIVTGIDIDDYLISEAEKKFPSATWHVGDLGSESIPDQGFDIAVCAGNVITFIEPDKQEAALAHIFEALRPNGRCIIGFGAGRGYVFPQFFEDARNVGFVIENNFESWGLNPLTNRSQFLVAFLRKPELEHHHHHH	failed
MQVELIIKNLKVYNSYFKKFIKSDVLINEGKFLHIGKGYEDRLWSENIIDGEDKYIIPGLIDIHMHIESSMTIPREFSKAAIKHGVTTVVADPHEIANVFGVRGIEEFIKFKGNLDIFYGILEHHHHHH	failed
MQVFIMRHGDAALDAASDSVRPLTTNGCDESRLMANWLKGQKVEIERVLVSPFLRAEQTLEEVGDCLNLPSSAEVLPELTPCGDVGLVSAYLQALTNEGVASVLVISHLPLVGYLVAELCPGETPPMFTTSAIASVTLDESGKGEFNWQMSPCNLKMAKAI	not failed
MQVFLQGLLFGIVYIAPIGMQNLFVVSTAIEQPLQRALRVALIVIAFDTSLSLACFYGVGRLLQTTPWLELGVLLIGSLLVFYIGWNLLRKKATAMGTLDADFSYKAAILTAFSVAWLNPQALIDGSVLLAAFRVSIPAALTHFFMLGVILASIIWFIGLTSLISKFKHLMQPRVLLWINRICGGIIILYGVQLLATFITKI	failed
MQVISPSSPAPRFAGKERFSEVYGELNDDFGSKLKISSKEEENRDDDSWWNQNGTDKDDEGREEDFSFASVNADNSPITADEAFEDGQIRPVYPLFNRNIFFDDPEEKTLRSPLKKLFVESTTTEEEEEESDTVGPYCSWTNRTVEQASPETCRKSNSTGFSKLWRFRDLVLRSNSDGKDAFVFLSNGSSSTSSTSSTAARLSGVVKSSEKGKEKTKTDKKKDKMRTKSAHEKLYMRNRAMREEGKRRSYLPYKHVGFFTNVNGLTRNVHPY	failed
MQVITSVKEAKQIVKDWKSHQLSIGYVPTMGFLHDGHLSLVKHAKTQDKVIVSIFVNPMQFGPNEDFSSYPRDLERDIKMCQDNGVDMVFIPDATQMYLKNFSTYVDMNTITDKLCGAKRPGHFRGVCTVLTKFFNILNPDIVYMGQKDAQQCVVVRHMVDDLNFDLKIQICPIIREEDGLAKSSRNVYLSKEERKASLAISQSIFLAEKLVREGEKNTSKIIQAMKDILEKEKLIKIDYIELVDFNTMENIENITDNVLGAVAAFVGKTRLIDNFLVQGLK	not failed
